# Earlier results in article PMC4518449 (Journal of chromatography. B, Analytical technologies in …, 2013).
# Settings: rapidly cleared by DPP-4
substance,measurement,value
GLP-1,half-life in plasma,less than 2 min
